{"source": "paper PMC5343488", "about": "“Epilepsy and intellectual disability linked protein Shrm4 interaction with GABABRs shapes inhibitory neurotransmission” (Nature Communications, 2017)", "binders": {"B1": {"name": "Tat-859–870 peptide (peptide)", "peptide": "YGRKKRRQRRRITRGEWQSET", "notes": "stretch of the GABAB1 C-tail named 859–870; also called Tat-peptide; Tat-859–870 (active) peptide; source: synthetic peptide (bought: Primm, Italy, and China Peptide, China)"}}, "target": "T1, GST-PDZ (Shrm4-PDZ domain, aa 1–91) (human, UniProt Q9ULL8 1-91)", "T1 construct": "Shrm4 (Shroom4), encoded by KIAA1202, PDZ domain, aa 1-91; in pGEX-4T-1, which should put GST at the N-terminus; source: E. coli BL21, purified using standard procedures", "T1 sequence (looked up)": "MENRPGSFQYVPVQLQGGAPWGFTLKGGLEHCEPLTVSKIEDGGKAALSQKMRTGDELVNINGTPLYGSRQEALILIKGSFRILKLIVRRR", "assay": "pull-down; competition: synthetic Tat-859–870 peptide added to the HEK293 lysate before the pull-down of GABAB1a by purified GST-PDZ; 10 μM or different concentrations", "conditions": "both partners purified"}
{"binder": "B1", "values": [{"measurement": "binding result", "value": "binds"}]}
